Test results published in US20260167685A1, “NEW MICROPEPTIDE HMBJ AND USE THEREOF” (NANJING ANJI BIOTECHNOLOGY CO., LTD, priority 2023, published 2026).

What was measured:
Assay type in all cases: cell-based
[1] = test system: human hepatic stellate cells LX-2; assay: inhibitory effect on human liver fibrosis cell model (TGFβ1-stimulated, qPCR); settings: LX-2 cells, 10 nmol recombinant human TGFβ1, different concentrations of synthetic micropeptide, co-incubation 24 h, qPCR (FIG. 11)
Text: (§1) Compared with the related art, this application has the following beneficial effects: • (1) This application provides a lncRNA and a nucleotide sequence thereof. Through analysis of sequencing data for multiple organ fibroses, it is discovered that the lncRNA molecule ENSG00000272654 is expressed at a low level in the organ fibroses. […] The lncRNA molecule can be used for diagnosis or auxiliary diagnosis and treatment or auxiliary treatment of organ fibrosis, or can be used in preparation of a reagent for diagnosis or auxiliary diagnosis and treatment or auxiliary treatment of organ fibrosis. • (2) This application provides a nucleotide sequence of an open reading frame of the lncRNA. The nucleotide sequence can code new micropeptide HMBJ. […] Then, the extracted total RNA is reverse-transcribed by using a reverse transcription reagent, and then mRNA expressions of gene Col1a1, TGFβ1, and CTGF in the three organ fibrosis cell models are detected by real-time fluorescence quantification PCR. […]
In this example, inhibitory effect of the micropeptide HMBJ on a human liver fibrosis cell model was detected. […] Then, the cells were resuspended in a complete medium and counted by using a cell counter. […]

[2] = test system: human non-small cell lung cancer cells A549; assay: inhibitory effect on human pulmonary fibrosis cell model (TGFβ1-stimulated, qPCR); settings: 10 nmol recombinant human TGFβ1, different concentrations of synthetic micropeptide, co-incubation 24 h, qPCR (FIG. 13)
Text: as §1
Human non-small cell lung cancer cells A549 were cultured in a cell incubator at 37° C. under 5% CO2 until a cell density was 80% or more. […] Then, the cells were resuspended in a complete medium and counted by using a cell counter. […]

[3] = test system: human renal proximal tubule cells HK2; assay: inhibitory effect on human renal fibrosis cell model (TGFβ1-stimulated, qPCR); settings: 10 nmol recombinant human TGFβ1, different concentrations of synthetic micropeptide, co-incubation 24 h, qPCR (FIG. 12)
Text: as §1
Human renal proximal tubule cells HK2 were cultured in a cell incubator at 37° C. under 5% CO2 until a cell density was 80% or more. […] Then, the cells were resuspended in a complete medium and counted by using a cell counter. […]

Measured: inhibitory effect on mRNA expressions of gene Col1a1, TGFβ1, and CTGF

B1: HMBJ: new human endogenous micropeptide of 71 amino acids (SEQ ID NO. 3) coded by lncRNA ENSG00000272654, made by solid-phase synthesis (peptide, listed as Homo sapiens)
chain: MEAKLRVLVPAETGISETHDEHETFSLSLGSHSATQMNGVTFPHVTLLSLLLRAGPLHNLFKCSQLSLAPT
significant inhibitory effect: [1] | [2] | [3]
